Measurements as given in patent publication US20240240209A1, “SYNTHESIS OF ENANTIOPURE CIS-A-IRONE FROM A RENEWABLE CARBON SOURCE” (Agency for Science, Technology and Research, priority 2021, published 2024).

B1: Q60R (protein)
chain: MPQEARTPQQHVTADEVGDWYDKFGEVYHLTLGESVHCGLWFPPDAPVPQDMELVTMSSQAQDRFTDYLIETLDPKAGQHLLDIGCGTGRPALKAARQRGIAVTGVAVSKEQIAAANRLAAGHGLTERLTFEVADAMRLPYEDESFDCAWAIESLDHMDRAKALGEAWRVLKPGGDLLVAEEVVTEELTEPETALFETLFALNVPPRLGEFFDIVSGAGFHTLSLKDLSADLAMTMNVFALGVYSRRAEFTERFGAEFVDGLLAGLGSAQETVIRKTRFFMATLRKPAV
modifications: Modified from pMT1
B2: T126S (protein)
chain: MPQEARTPQQQVTADEVGDWYDKFGEVYHLTLGESVHCGLWFPPDAPVPQDMELVTMSSQAQDRFTDYLIETLDPKAGQHLLDIGCGTGRPALKAARQRGIAVTGVAVSKEQIAAANRLAAGHGLSERLTFEVADAMRLPYEDESFDCAWAIESLDHMDRAKALGEAWRVLKPGGDLLVAEEVVTEELTEPETALFETLFALNVPPRLGEFFDIVSGAGFHTLSLKDLSADLAMTMNVFALGVYSRRAEFTERFGAEFVDGLLAGLGSAQETVIRKTRFFMATLRKPAV
modifications: Modified from pMT1
B3: Q11W (protein)
chain: MPQEARTPQQWVTADEVGDWYDKFGEVYHLTLGESVHCGLWFPPDAPVPQDMELVTMSSQAQDRFTDYLIETLDPKAGQHLLDIGCGTGRPALKAARQRGIAVTGVAVSKEQIAAANRLAAGHGLTERLTFEVADAMRLPYEDESFDCAWAIESLDHMDRAKALGEAWRVLKPGGDLLVAEEVVTEELTEPETALFETLFALNVPPRLGEFFDIVSGAGFHTLSLKDLSADLAMTMNVFALGVYSRRAEFTERFGAEFVDGLLAGLGSAQETVIRKTRFFMATLRKPAV
modifications: Modified from pMT1
B4: T126E (protein)
chain: MPQEARTPQQQVTADEVGDWYDKFGEVYHLTLGESVHCGLWFPPDAPVPQDMELVTMSSQAQDRFTDYLIETLDPKAGQHLLDIGCGTGRPALKAARQRGIAVTGVAVSKEQIAAANRLAAGHGLEERLTFEVADAMRLPYEDESFDCAWAIESLDHMDRAKALGEAWRVLKPGGDLLVAEEVVTEELTEPETALFETLFALNVPPRLGEFFDIVSGAGFHTLSLKDLSADLAMTMNVFALGVYSRRAEFTERFGAEFVDGLLAGLGSAQETVIRKTRFFMATLRKPAV
modifications: Modified from pMT1
B5: P191I (protein)
chain: MPQEARTPQQQVTADEVGDWYDKFGEVYHLTLGESVHCGLWFPPDAPVPQDMELVTMSSQAQDRFTDYLIETLDPKAGQHLLDIGCGTGRPALKAARQRGIAVTGVAVSKEQIAAANRLAAGHGLTERLTFEVADAMRLPYEDESFDCAWAIESLDHMDRAKALGEAWRVLKPGGDLLVAEEVVTEELTEIETALFETLFALNVPPRLGEFFDIVSGAGFHTLSLKDLSADLAMTMNVFALGVYSRRAEFTERFGAEFVDGLLAGLGSAQETVIRKTRFFMATLRKPAV
modifications: Modified from pMT1
B6: V12G (protein)
chain: MPQEARTPQQQGTADEVGDWYDKFGEVYHLTLGESVHCGLWFPPDAPVPQDMELVTMSSQAQDRFTDYLIETLDPKAGQHLLDIGCGTGRPALKAARQRGIAVTGVAVSKEQIAAANRLAAGHGLTERLTFEVADAMRLPYEDESFDCAWAIESLDHMDRAKALGEAWRVLKPGGDLLVAEEVVTEELTEPETALFETLFALNVPPRLGEFFDIVSGAGFHTLSLKDLSADLAMTMNVFALGVYSRRAEFTERFGAEFVDGLLAGLGSAQETVIRKTRFFMATLRKPAV
modifications: Modified from pMT1
B7: P191L (protein)
chain: MPQEARTPQQQVTADEVGDWYDKFGEVYHLTLGESVHCGLWFPPDAPVPQDMELVTMSSQAQDRFTDYLIETLDPKAGQHLLDIGCGTGRPALKAARQRGIAVTGVAVSKEQIAAANRLAAGHGLTERLTFEVADAMRLPYEDESFDCAWAIESLDHMDRAKALGEAWRVLKPGGDLLVAEEVVTEELTELETALFETLFALNVPPRLGEFFDIVSGAGFHTLSLKDLSADLAMTMNVFALGVYSRRAEFTERFGAEFVDGLLAGLGSAQETVIRKTRFFMATLRKPAV
modifications: Modified from pMT1
B8: H123Q (protein)
chain: MPQEARTPQQQVTADEVGDWYDKFGEVYHLTLGESVHCGLWFPPDAPVPQDMELVTMSSQAQDRFTDYLIETLDPKAGQHLLDIGCGTGRPALKAARQRGIAVTGVAVSKEQIAAANRLAAGQGLTERLTFEVADAMRLPYEDESFDCAWAIESLDHMDRAKALGEAWRVLKPGGDLLVAEEVVTEELTEPETALFETLFALNVPPRLGEFFDIVSGAGFHTLSLKDLSADLAMTMNVFALGVYSRRAEFTERFGAEFVDGLLAGLGSAQETVIRKTRFFMATLRKPAV
modifications: Modified from pMT1
B9: V12A (protein)
chain: MPQEARTPQQQATADEVGDWYDKFGEVYHLTLGESVHCGLWFPPDAPVPQDMELVTMSSQAQDRFTDYLIETLDPKAGQHLLDIGCGTGRPALKAARQRGIAVTGVAVSKEQIAAANRLAAGHGLTERLTFEVADAMRLPYEDESFDCAWAIESLDHMDRAKALGEAWRVLKPGGDLLVAEEVVTEELTEPETALFETLFALNVPPRLGEFFDIVSGAGFHTLSLKDLSADLAMTMNVFALGVYSRRAEFTERFGAEFVDGLLAGLGSAQETVIRKTRFFMATLRKPAV
modifications: Modified from pMT1
B10: H123S (protein)
chain: MPQEARTPQQQVTADEVGDWYDKFGEVYHLTLGESVHCGLWFPPDAPVPQDMELVTMSSQAQDRFTDYLIETLDPKAGQHLLDIGCGTGRPALKAARQRGIAVTGVAVSKEQIAAANRLAAGSGLTERLTFEVADAMRLPYEDESFDCAWAIESLDHMDRAKALGEAWRVLKPGGDLLVAEEVVTEELTEPETALFETLFALNVPPRLGEFFDIVSGAGFHTLSLKDLSADLAMTMNVFALGVYSRRAEFTERFGAEFVDGLLAGLGSAQETVIRKTRFFMATLRKPAV
modifications: Modified from pMT1
B11: V12K (protein)
chain: MPQEARTPQQQKTADEVGDWYDKFGEVYHLTLGESVHCGLWFPPDAPVPQDMELVTMSSQAQDRFTDYLIETLDPKAGQHLLDIGCGTGRPALKAARQRGIAVTGVAVSKEQIAAANRLAAGHGLTERLTFEVADAMRLPYEDESFDCAWAIESLDHMDRAKALGEAWRVLKPGGDLLVAEEVVTEELTEPETALFETLFALNVPPRLGEFFDIVSGAGFHTLSLKDLSADLAMTMNVFALGVYSRRAEFTERFGAEFVDGLLAGLGSAQETVIRKTRFFMATLRKPAV
modifications: Modified from pMT1
B12: E190P, G122S (protein)
chain: MPQEARTPQQQVTADEVGDWYDKFGEVYHLTLGESVHCGLWFPPDAPVPQDMELVTMSSQAQDRFTDYLIETLDPKAGQHLLDIGCGTGRPALKAARQRGIAVTGVAVSKEQIAAANRLAASHGLTERLTFEVADAMRLPYEDESFDCAWAIESLDHMDRAKALGEAWRVLKPGGDLLVAEEVVTEELTPPETALFETLFALNVPPRLGEFFDIVSGAGFHTLSLKDLSADLAMTMNVFALGVYSRRAEFTERFGAEFVDGLLAGLGSAQETVIRKTRFFMATLRKPAV

Assay: In-vivo cis-α-irone production screening of pMT7 and pMT12 mutants
Type: cell-based, Escherichia coli
Conditions: for Fold change in in-vivo cis-α-irone production: mutations made to pMT12, normalized to pMT12 (=1)
From the text: Q60 was identified as another possible mutation site.
FIGS. 24a and 24b show the in-vivo and in-vitro cis-α-irone production of other possible single mutations to pMT12. The in-vitro results in FIG. 24b validate the mutations and in-vivo results in FIG. 24a. The mutations in FIG. 24 include Q11H (SEQ ID No. 23), V12R (SEQ ID No. 24), A95C (SEQ ID No. 25), H123Q (SEQ ID No. 26), E127T (SEQ ID No. 27), M137T (SEQ ID No. 28), D176V (SEQ ID No. 29), D176Y (SEQ ID No. 30). P191S (SEQ ID No. 31), P191V (SEQ ID No. 32), F212L (SEQ ID No. 33), S268H (SEQ ID No. 34), AND T272A (SEQ ID No. 35). The screening results in FIGS. 24 and 25 are semi-quantitative to identify beneficial mutants that give greater than one-fold change of irone production as compared to pMT12.
FIGS. 25a to 25c (and Table 4) show the in-vivo testing results of other possible mutations that may be made to pMT12 to improve its in-vivo production of cis-α-irone. FIGS. 25a to 25c each include two dotted lines to account for a 10% error bar to show the normalized fold change of 0.9 and 1.1.
The four plasmids were transformed into E. coli BL21 (DE3), ΔaroA, ΔaroB, ΔaroC, ΔserC or E. coli BL21 (DE3), ΔaroA, ΔaroB, ΔaroC, ΔserC, ΔmetJ strains and plated on Agar plate containing LB media (10 g, tryptone. 5 g, yeast extract. 10 g, NaCl) supplemented with appropriate antibiotics (100 mg/L ampicillin, 34 mg/L chloramphenicol, 50 mg/L kanamycin, and 100 mg/L spectinomycin). One colony was picked and inoculate into LB media with antibiotics. 1% of overnight culture was inoculated into 1 ml fresh auto-inducing chemically defined media. The chemical media contains carbon source solution: 0.5 g/L glucose, 10 g/L glycerol; inducer: 30 mM lactose and base media: 2 g/L ammonium sulfate, 4.2 g/L KH2PO4, 11.24 g/L K2HPO4, 1.7 g/L citric acid, 0.5 g/L MgSO4, and 10 mL/L trace element solution. The trace element solution (100×) contained 0.25 g/L CoCl2·6H2O, 1.5 g/L MnSO4·4H2O, 0.15 g/L CuSO4·2H2O, 0.3 g/L H3BO3, 0.25 g/L Na2MoO4·2H2O, 0.8 g/L Zn(CH3COO)2, 5 g/L Fe(III) citrate, and 0.84 g/L ethylenediaminetetra-acetic acid (EDTA) at pH 8.0. The culture was grown at 28° C. for 3 days and the products were extracted with 1 ml hexane for GCMS analysis. An example of a fed-batch process for α-ionone Is briefly described, overnight culture was inoculated into 2 L chemical media comprising the base media and 5 g/L glucose, at 37° C. and 30% DO. pH was controlled at 7 with base solution (14% ammonia and 0.5 M NaOH). Feed media (500 g/L glucose and 5 g/L MgSO4) was added into bioreactor once OD600 reached 5, at a rate of 7.15-25.75 g/h glucose for about 4-5 h until OD600 reached ˜30-40. Subsequently, 0.1 mM IPTG was added to induce the production, and feeding rate was kept at a constant rate of 10 g/h glucose, and the temperature was reduced to 30° C. DO was adjusted to 2% or 10%. Feeding was stopped at 113 h when 2 L feeding media was finished, but the culture was further incubated for 24 h. To capture the evaporated products, the exhaust was connected to 25 ml sunflower oil.

Molecule	in-vivo production of cis-α-irone (in words) (single mutations vs parent (pMT7 or pMT12))	Fold change in in-vivo cis-α-irone production
B1	increased cis-α-irone production in-vivo	
B2		0.96
B3		0.90
B4		0.88
B5		1.31
B6		0.97
B7		1.12
B8		0.87
B9		0.97
B10		0.84
B11		1.00
B12		1.02
